Measured values reported in publication PMC3991886, “Characterization of single-stranded DNA-binding proteins from the psychrophilic bacteria Desulfotalea psychrophila, Flavobacterium psychrophilum, Psychrobacter arcticus, Psychrobacter cryohalolentis, Psychromonas ingrahamii, Psychroflexus torquis, and Photobacterium profundum” (BMC Microbiology, 2014).

Legend:
[1] = molecular target: Desulfotalea psychrophila single-stranded DNA-binding protein (Desulfotalea psychrophila); assay: cross-linking; 0.5% (v/v) glutaraldehyde, 15 min, 25°C, 10, 50 or 100 pmol SSB; quenched with 1 M Tris-HCl pH 8.0; SDS-PAGE (12%)
[2] = molecular target: Desulfotalea psychrophila single-stranded DNA-binding protein (Desulfotalea psychrophila); assay: SEC; analytical gel filtration, Superdex 200 10/300 GL, 20 mM Tris-HCl pH 7.5, 150 mM NaCl, 10 mM EDTA, 0.5 ml/min; mass from a regression curve of standard proteins
[3] = molecular target: Desulfotalea psychrophila single-stranded DNA-binding protein (Desulfotalea psychrophila); assay: sedimentation in glycerol gradient; linear 15 to 30% (w/v) glycerol gradients in 50 mM Tris-HCl pH 7.5, 0.5 M NaCl, 1 mM EDTA, 5 mM beta-mercaptoethanol; 50 ul of 300 uM SSB; SW 60 rotor, 46,000 rpm, 24 h, 4°C; fractions by SDS-PAGE; compared with standard proteins, EcoSSB and PhaSSB
[4] = molecular target: Psychromonas ingrahamii single-stranded DNA-binding protein (Psychromonas ingrahamii); assay: cross-linking; 0.5% (v/v) glutaraldehyde, 15 min, 25°C, 10, 50 or 100 pmol SSB; quenched with 1 M Tris-HCl pH 8.0; SDS-PAGE (12%)
[5] = molecular target: Psychromonas ingrahamii single-stranded DNA-binding protein (Psychromonas ingrahamii); assay: SEC; analytical gel filtration, Superdex 200 10/300 GL, 20 mM Tris-HCl pH 7.5, 150 mM NaCl, 10 mM EDTA, 0.5 ml/min; mass from a regression curve of standard proteins
[6] = molecular target: Psychromonas ingrahamii single-stranded DNA-binding protein (Psychromonas ingrahamii); assay: sedimentation in glycerol gradient; linear 15 to 30% (w/v) glycerol gradients in 50 mM Tris-HCl pH 7.5, 0.5 M NaCl, 1 mM EDTA, 5 mM beta-mercaptoethanol; 50 ul of 300 uM SSB; SW 60 rotor, 46,000 rpm, 24 h, 4°C; fractions by SDS-PAGE; compared with standard proteins, EcoSSB and PhaSSB
[7] = molecular target: Psychrobacter arcticus single-stranded DNA-binding protein (Psychrobacter arcticus) (UniProt Q4FR27); assay: cross-linking; 0.5% (v/v) glutaraldehyde, 15 min, 25°C, 10, 50 or 100 pmol SSB; quenched with 1 M Tris-HCl pH 8.0; SDS-PAGE (12%)
[8] = molecular target: Psychrobacter arcticus single-stranded DNA-binding protein (Psychrobacter arcticus) (UniProt Q4FR27); assay: SEC; analytical gel filtration, Superdex 200 10/300 GL, 20 mM Tris-HCl pH 7.5, 150 mM NaCl, 10 mM EDTA, 0.5 ml/min; mass from a regression curve of standard proteins
[9] = molecular target: Psychrobacter arcticus single-stranded DNA-binding protein (Psychrobacter arcticus) (UniProt Q4FR27); assay: sedimentation in glycerol gradient; linear 15 to 30% (w/v) glycerol gradients in 50 mM Tris-HCl pH 7.5, 0.5 M NaCl, 1 mM EDTA, 5 mM beta-mercaptoethanol; 50 ul of 300 uM SSB; SW 60 rotor, 46,000 rpm, 24 h, 4°C; fractions by SDS-PAGE; compared with standard proteins, EcoSSB and PhaSSB
[10] = tested on: DpsSSB (Desulfotalea psychrophila LSv54 (DSM 12343)); assay: fluorescence titration; details: 2-300 mM NaCl, site size 31 ± 2 nt, EMSA: 20 mM Tris-HCl pH 8.0, 100 mM NaCl, 1 mM EDTA, 25 C, 2% agarose in TAE, fluorescence titration: 20 mM Tris-HCl pH 8.0, 1 mM EDTA, 2/100/300 mM NaCl
[11] = molecular target: Psychroflexus torquis single-stranded DNA-binding protein (Psychroflexus torquis); assay: cross-linking; 0.5% (v/v) glutaraldehyde, 15 min, 25°C, 10, 50 or 100 pmol SSB; quenched with 1 M Tris-HCl pH 8.0; SDS-PAGE (12%)
[12] = molecular target: Psychroflexus torquis single-stranded DNA-binding protein (Psychroflexus torquis); assay: SEC; analytical gel filtration, Superdex 200 10/300 GL, 20 mM Tris-HCl pH 7.5, 150 mM NaCl, 10 mM EDTA, 0.5 ml/min; mass from a regression curve of standard proteins
[13] = molecular target: Psychroflexus torquis single-stranded DNA-binding protein (Psychroflexus torquis); assay: sedimentation in glycerol gradient; linear 15 to 30% (w/v) glycerol gradients in 50 mM Tris-HCl pH 7.5, 0.5 M NaCl, 1 mM EDTA, 5 mM beta-mercaptoethanol; 50 ul of 300 uM SSB; SW 60 rotor, 46,000 rpm, 24 h, 4°C; fractions by SDS-PAGE; compared with standard proteins, EcoSSB and PhaSSB
[14] = molecular target: Photobacterium profundum single-stranded DNA-binding protein (Photobacterium profundum) (UniProt Q6LM83); assay: cross-linking; 0.5% (v/v) glutaraldehyde, 15 min, 25°C, 10, 50 or 100 pmol SSB; quenched with 1 M Tris-HCl pH 8.0; SDS-PAGE (12%)
[15] = molecular target: Photobacterium profundum single-stranded DNA-binding protein (Photobacterium profundum) (UniProt Q6LM83); assay: SEC; analytical gel filtration, Superdex 200 10/300 GL, 20 mM Tris-HCl pH 7.5, 150 mM NaCl, 10 mM EDTA, 0.5 ml/min; mass from a regression curve of standard proteins
[16] = molecular target: Photobacterium profundum single-stranded DNA-binding protein (Photobacterium profundum) (UniProt Q6LM83); assay: sedimentation in glycerol gradient; linear 15 to 30% (w/v) glycerol gradients in 50 mM Tris-HCl pH 7.5, 0.5 M NaCl, 1 mM EDTA, 5 mM beta-mercaptoethanol; 50 ul of 300 uM SSB; SW 60 rotor, 46,000 rpm, 24 h, 4°C; fractions by SDS-PAGE; compared with standard proteins, EcoSSB and PhaSSB
[17] = molecular target: Psychrobacter cryohalolentis single-stranded DNA-binding protein (Psychrobacter cryohalolentis); assay: cross-linking; 0.5% (v/v) glutaraldehyde, 15 min, 25°C, 10, 50 or 100 pmol SSB; quenched with 1 M Tris-HCl pH 8.0; SDS-PAGE (12%)
[18] = molecular target: Psychrobacter cryohalolentis single-stranded DNA-binding protein (Psychrobacter cryohalolentis); assay: SEC; analytical gel filtration, Superdex 200 10/300 GL, 20 mM Tris-HCl pH 7.5, 150 mM NaCl, 10 mM EDTA, 0.5 ml/min; mass from a regression curve of standard proteins
[19] = molecular target: Psychrobacter cryohalolentis single-stranded DNA-binding protein (Psychrobacter cryohalolentis); assay: sedimentation in glycerol gradient; linear 15 to 30% (w/v) glycerol gradients in 50 mM Tris-HCl pH 7.5, 0.5 M NaCl, 1 mM EDTA, 5 mM beta-mercaptoethanol; 50 ul of 300 uM SSB; SW 60 rotor, 46,000 rpm, 24 h, 4°C; fractions by SDS-PAGE; compared with standard proteins, EcoSSB and PhaSSB
[20] = molecular target: the molecule itself; assay: cross-linking; 0.5% (v/v) glutaraldehyde, 15 min, 25°C, 10, 50 or 100 pmol SSB; quenched with 1 M Tris-HCl pH 8.0; SDS-PAGE (12%)
[21] = molecular target: the molecule itself; assay: SEC; analytical gel filtration, Superdex 200 10/300 GL, 20 mM Tris-HCl pH 7.5, 150 mM NaCl, 10 mM EDTA, 0.5 ml/min; mass from a regression curve of standard proteins
PprSSB = molecular target: T1, PprSSB (Photobacterium profundum (LMG 19446), UniProt Q6LM83 5-187); assay: EMSA; complex I only; EMSA: 20 mM Tris-HCl pH 8.0, 100 mM NaCl, 1 mM EDTA, 25 C, 2% agarose in TAE; fluorescence titration: 20 mM Tris-HCl pH 8.0, 1 mM EDTA, 2/100/300 mM NaCl, 25 C; details: protein: recombinant; tags: none (stop codon in reverse primer); chain copies: 4; label: 5'-fluorescein
T1 sequence: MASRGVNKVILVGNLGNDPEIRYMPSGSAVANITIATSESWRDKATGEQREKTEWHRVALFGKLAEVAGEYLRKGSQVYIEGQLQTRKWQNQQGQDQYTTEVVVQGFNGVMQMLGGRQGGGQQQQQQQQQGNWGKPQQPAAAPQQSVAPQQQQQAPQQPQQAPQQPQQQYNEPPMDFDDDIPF

PcrSSB = molecular target: T2, PcrSSB (Psychrobacter cryohalolentis K5 (DSM …, UniProt Q1Q9B8 1-1+=G+2-219, internal_change)); assay: as above; details: protein: recombinant; tags: none (stop codon in reverse primer); chain copies: 4; label: 5'-fluorescein
T2 sequence: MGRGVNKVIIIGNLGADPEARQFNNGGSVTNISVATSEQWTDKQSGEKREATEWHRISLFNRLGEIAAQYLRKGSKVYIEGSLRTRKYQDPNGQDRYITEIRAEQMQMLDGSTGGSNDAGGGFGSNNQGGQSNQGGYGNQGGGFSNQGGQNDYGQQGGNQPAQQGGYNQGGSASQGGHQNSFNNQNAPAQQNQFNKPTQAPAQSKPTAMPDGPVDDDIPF

PinSSB = molecular target: T3, PinSSB (Psychromonas ingrahamii 37 (DSM 17664), UniProt A1T012 1-1+=G+2-222, internal_change); assay: as above; details: protein: recombinant; tags: none (stop codon in reverse primer); chain copies: 4; label: 5'-fluorescein
T3 sequence: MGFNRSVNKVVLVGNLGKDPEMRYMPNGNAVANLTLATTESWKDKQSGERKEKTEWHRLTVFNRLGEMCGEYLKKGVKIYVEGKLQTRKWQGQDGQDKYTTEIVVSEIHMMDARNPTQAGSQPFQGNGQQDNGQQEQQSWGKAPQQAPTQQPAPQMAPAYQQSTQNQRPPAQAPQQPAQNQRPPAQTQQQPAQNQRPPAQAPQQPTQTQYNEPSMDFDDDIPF

PtoSSB = molecular target: T4, PtoSSB (Psychroflexus torquis ATCC 700755 (LMG …, UniProt K4IS14 1-151)); assay: as above; details: protein: recombinant; tags: none (stop codon in reverse primer); chain copies: 4; label: 5'-fluorescein
T4 sequence: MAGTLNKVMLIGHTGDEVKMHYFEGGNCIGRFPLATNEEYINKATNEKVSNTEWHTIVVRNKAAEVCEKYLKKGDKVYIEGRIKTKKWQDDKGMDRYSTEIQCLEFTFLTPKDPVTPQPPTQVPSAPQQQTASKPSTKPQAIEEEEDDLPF

Desulfotalea psychrophila single-stranded DNA-binding protein (natural protein)
stoichiometry N [1]: 4
stoichiometry N [2]: 3.8 mass monomer
stoichiometry N [3]: 4

Psychromonas ingrahamii single-stranded DNA-binding protein (natural protein)
stoichiometry N [4]: 4
stoichiometry N (mass monomers) [5]: 4.1
stoichiometry N [6]: 4

Psychrobacter arcticus single-stranded DNA-binding protein (from UniProt Q4FR27 1-213) (natural protein)
stoichiometry N [7]: 4
stoichiometry N (mass monomers) [8]: 4.1
stoichiometry N [9]: 4

TTTTTTTTTTTTTTTTTTTTTTTTTTTTTTTTTTTTTTTTTTTTTTTTTTTTTTTTTTTTTTTTTTTTTTTTTTTT [(dT)76]
binding signal (% Trp fluorescence quench at saturation) [10]: 93

Psychroflexus torquis single-stranded DNA-binding protein (natural protein)
stoichiometry N [11]: 4
stoichiometry N (mass monomers) [12]: 4.2
stoichiometry N [13]: 4

Photobacterium profundum single-stranded DNA-binding protein (from UniProt Q6LM83 1-187) (natural protein)
stoichiometry N [14]: 4
stoichiometry N (mass monomers) [15]: 4.2
stoichiometry N [16]: 4

Psychrobacter cryohalolentis single-stranded DNA-binding protein (natural protein)
stoichiometry N [17]: 4
stoichiometry N (mass monomers) [18]: 4.1
stoichiometry N [19]: 4

B1: Flavobacterium psychrophilum single-stranded DNA-binding protein (natural protein)
chain: MGNGTLNKVMLIGHLGEDIKMHYFDGGNCIGRFPLATNEIYINKSTNEKITSTEWHNVVVRNKAAEICEKYLSKGDKIYVEGRIKSRQWQAEDGTVKYTTEIQVTEFTFLNTKKDSEIVKTASEAPKTTSFDSTVENDLPF
notes: SSB of Flavobacterium psychrophilum JIP02/86 (LMG 13180), 140 amino acid residues including the N-terminal methionine, 15.9 kDa monomer; Cloned in pBAD/myc-HisA between NcoI and HindIII; the reverse primer carries the gene's stop codon, so the vector's C-terminal myc-His tag is probably not on the protein (surmised); The forward primer has two G that are not complementary to the gene, which adds …
stoichiometry N [20]: 4
stoichiometry N [21]: 4.4 mass monomer

TTTTTTTTTTTTTTTTTTTTTTTTTTTTTTTTTTT (ssDNA) [(dT)35]
binding result (PprSSB): binds
binding result (PcrSSB): binds
binding result (PinSSB): binds
binding result (PtoSSB): binds
